# Measured values: patent US6027884
# Tested on: Alu I restriction endonuclease
# Assay: cleavage_in_vitro
# Details: first strand cleavage rate constant; 13 uM (AT)2 competitor
row,Sequence,activity
1,AAAAAGCTTTTT (double strand) [(AA)2 AGCT(TT)2],0.0063 min⁻¹
2,AAAAAAAAAGCTTTTTTTTT (double strand) [(AA)4 AGCT(TT)4],0.0031 min⁻¹
3,AAAAAAAGCTTTTTTT (double strand) [(AA)3 AGCT(TT)3],0.0039 min⁻¹
4,ATATATAGCTATATAT (double strand) [(AT)3 AGCT(AT)3],0.0115 min⁻¹
5,ATATATATAGCTATATATAT (double strand) [(AT)4 AGCT(AT)4],0.0093 min⁻¹
6,AAATATAGCTATATTT (double strand) [(AA)(AT)2 AGCT(AT)2 TT],0.0077 min⁻¹

# Same assay, conditions: first strand cleavage rate constant; 13 uM (AT)2 competitor, 95 nM labeled duplex
row,Sequence,activity
1,ATATAGCTATAT (double strand) [(AT)2 AGCT(AT)2],0.019 min⁻¹
